Reference: patent publication US20170073406A1

Assays:
[1] = target: biotinylated His-tagged TGF-β1 LAP C4S (Homo sapiens (Human)) (UniProt P01137); assay: ELISA, neutravidin plate with biotinylated His-tagged TGF-β1 LAP C4S; antibody dilution 1:1,000; fluorescent secondary detection
[2] = target: biotinylated His-tagged TGF-β1 LAP C4S (Homo sapiens (Human)) (UniProt P01137); assay: ELISA, neutravidin plate with biotinylated His-tagged TGF-β1 LAP C4S; antibody dilution 1:5,000; fluorescent secondary detection
[3] = target: biotinylated His-tagged TGF-β1 LAP C4S (Homo sapiens (Human)) (UniProt P01137); assay: ELISA, neutravidin plate with biotinylated His-tagged TGF-β1 LAP C4S; antibody dilution 1:10,000; fluorescent secondary detection
[4] = target: human GARP-proTGF-β1 (membrane-bound GARP with proTGF-β1, on transfected cells) (human) (UniProt Q14392); assay: cell-based or functional assay
human GARP-proTGF-β1 (membrane-bound GARP with proTGF-β1, on transfected cells) (human), sequence (Q14392 20-662 limits assumed, chain 1 of 2): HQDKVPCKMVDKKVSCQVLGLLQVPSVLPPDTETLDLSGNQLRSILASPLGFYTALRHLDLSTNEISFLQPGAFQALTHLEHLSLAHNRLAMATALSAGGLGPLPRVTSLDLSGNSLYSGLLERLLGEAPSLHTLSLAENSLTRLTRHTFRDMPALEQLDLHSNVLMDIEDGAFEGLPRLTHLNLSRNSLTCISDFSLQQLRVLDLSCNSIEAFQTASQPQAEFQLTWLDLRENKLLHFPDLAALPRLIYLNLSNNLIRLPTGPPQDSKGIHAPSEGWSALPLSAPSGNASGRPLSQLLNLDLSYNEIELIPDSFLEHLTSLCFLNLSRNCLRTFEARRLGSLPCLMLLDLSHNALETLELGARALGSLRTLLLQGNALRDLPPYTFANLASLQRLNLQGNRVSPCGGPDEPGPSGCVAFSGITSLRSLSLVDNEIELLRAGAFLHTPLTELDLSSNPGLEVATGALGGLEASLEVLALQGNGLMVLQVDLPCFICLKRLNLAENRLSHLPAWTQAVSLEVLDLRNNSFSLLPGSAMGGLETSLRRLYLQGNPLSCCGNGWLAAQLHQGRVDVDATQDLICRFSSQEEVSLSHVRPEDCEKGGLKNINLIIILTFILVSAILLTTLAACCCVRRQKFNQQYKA
human GARP-proTGF-β1 (membrane-bound GARP with proTGF-β1, on transfected cells) (human), sequence (chain, as listed by the source limits assumed, chain 2 of 2): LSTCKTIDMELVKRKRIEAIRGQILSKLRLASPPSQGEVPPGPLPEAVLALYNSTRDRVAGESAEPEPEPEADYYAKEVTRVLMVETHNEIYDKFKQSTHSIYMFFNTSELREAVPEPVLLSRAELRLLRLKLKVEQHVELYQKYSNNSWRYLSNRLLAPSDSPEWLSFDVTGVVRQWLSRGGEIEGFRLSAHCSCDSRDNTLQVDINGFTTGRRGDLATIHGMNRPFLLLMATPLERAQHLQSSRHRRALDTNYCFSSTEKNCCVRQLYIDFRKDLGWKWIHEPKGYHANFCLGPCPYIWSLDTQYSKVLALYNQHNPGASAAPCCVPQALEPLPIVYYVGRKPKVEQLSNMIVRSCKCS

[5] = target: human LTBP1 plus proTGF-β1, expressed by transiently transfected SW480 or HEK293 cells (human) (UniProt Q14766); assay: cell-based or functional assay
human LTBP1 plus proTGF-β1, expressed by transiently transfected SW480 or HEK293 cells (human), sequence (Q14766 347-1721 limits assumed, chain 1 of 2): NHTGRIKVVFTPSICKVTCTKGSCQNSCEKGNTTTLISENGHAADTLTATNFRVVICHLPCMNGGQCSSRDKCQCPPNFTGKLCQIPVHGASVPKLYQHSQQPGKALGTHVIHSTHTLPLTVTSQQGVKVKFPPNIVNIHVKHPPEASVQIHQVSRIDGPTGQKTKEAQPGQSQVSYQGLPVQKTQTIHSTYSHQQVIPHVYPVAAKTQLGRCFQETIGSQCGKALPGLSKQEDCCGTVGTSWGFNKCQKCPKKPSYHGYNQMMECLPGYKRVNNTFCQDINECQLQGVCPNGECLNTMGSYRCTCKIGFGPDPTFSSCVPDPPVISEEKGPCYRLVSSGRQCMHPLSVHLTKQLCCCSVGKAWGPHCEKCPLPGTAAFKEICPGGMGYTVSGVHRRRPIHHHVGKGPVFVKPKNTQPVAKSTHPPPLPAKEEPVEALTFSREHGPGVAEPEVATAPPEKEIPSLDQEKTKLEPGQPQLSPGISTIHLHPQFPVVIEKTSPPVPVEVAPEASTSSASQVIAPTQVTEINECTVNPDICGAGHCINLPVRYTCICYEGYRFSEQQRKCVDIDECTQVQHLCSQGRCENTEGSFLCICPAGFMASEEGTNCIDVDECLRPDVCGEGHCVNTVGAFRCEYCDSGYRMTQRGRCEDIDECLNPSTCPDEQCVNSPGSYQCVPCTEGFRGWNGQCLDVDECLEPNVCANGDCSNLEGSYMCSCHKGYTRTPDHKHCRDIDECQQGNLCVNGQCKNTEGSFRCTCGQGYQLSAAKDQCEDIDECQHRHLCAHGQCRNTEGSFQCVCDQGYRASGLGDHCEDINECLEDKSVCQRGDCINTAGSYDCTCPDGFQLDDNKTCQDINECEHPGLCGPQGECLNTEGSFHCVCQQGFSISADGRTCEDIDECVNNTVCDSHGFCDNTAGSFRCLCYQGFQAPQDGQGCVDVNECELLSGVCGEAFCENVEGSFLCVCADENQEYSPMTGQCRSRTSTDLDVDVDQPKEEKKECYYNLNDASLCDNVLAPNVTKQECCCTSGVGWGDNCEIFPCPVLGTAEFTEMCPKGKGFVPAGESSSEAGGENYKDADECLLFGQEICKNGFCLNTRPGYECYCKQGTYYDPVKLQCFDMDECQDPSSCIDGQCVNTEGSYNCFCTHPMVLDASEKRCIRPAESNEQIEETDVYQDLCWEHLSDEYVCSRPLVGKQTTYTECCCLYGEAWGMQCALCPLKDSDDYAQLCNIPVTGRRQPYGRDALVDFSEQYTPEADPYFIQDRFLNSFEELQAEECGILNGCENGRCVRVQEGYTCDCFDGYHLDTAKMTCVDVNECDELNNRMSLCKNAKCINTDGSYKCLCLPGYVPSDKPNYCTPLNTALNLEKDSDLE

[6] = target: LTBP1-proTGFβ1 (protein complex of the ELISA of Example 35) (UniProt Q14766); assay: ELISA with increasing concentrations of MAB246
LTBP1-proTGFβ1 (protein complex of the ELISA of Example 35), sequence (Q14766 347-1721 limits assumed, chain 1 of 2): as above

[7] = target: TGF-β1 LAP complexed with sGARP (Homo sapiens (Human)) (UniProt Q14392); assay: ELISA with increasing concentrations of MAB246
TGF-β1 LAP complexed with sGARP (Homo sapiens (Human)), sequence (Q14392 18-627 limits assumed, chain 1 of 2): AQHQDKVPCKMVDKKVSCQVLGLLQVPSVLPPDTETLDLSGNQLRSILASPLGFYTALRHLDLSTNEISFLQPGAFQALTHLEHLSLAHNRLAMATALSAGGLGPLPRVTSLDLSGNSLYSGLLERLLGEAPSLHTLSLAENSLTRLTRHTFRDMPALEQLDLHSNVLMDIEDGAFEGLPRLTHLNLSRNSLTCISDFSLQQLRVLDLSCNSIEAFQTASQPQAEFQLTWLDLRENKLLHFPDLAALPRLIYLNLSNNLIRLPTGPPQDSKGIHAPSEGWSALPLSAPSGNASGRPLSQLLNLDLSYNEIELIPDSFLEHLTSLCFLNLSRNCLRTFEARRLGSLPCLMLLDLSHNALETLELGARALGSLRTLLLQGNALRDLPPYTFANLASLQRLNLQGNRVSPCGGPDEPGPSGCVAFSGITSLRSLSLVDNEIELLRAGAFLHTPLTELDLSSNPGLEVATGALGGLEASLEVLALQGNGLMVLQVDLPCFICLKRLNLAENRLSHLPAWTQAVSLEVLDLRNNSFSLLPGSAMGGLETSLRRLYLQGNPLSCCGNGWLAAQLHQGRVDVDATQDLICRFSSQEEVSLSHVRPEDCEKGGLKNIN
TGF-β1 LAP complexed with sGARP (Homo sapiens (Human)), sequence (chain, as listed by the source limits assumed, chain 2 of 2): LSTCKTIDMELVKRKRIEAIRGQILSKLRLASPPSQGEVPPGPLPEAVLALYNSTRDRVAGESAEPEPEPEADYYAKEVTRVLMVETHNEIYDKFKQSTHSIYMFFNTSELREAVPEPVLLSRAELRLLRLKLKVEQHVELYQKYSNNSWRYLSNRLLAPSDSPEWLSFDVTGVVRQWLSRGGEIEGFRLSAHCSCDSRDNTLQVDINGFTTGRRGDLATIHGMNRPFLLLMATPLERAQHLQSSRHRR

[8] = target: proTGF-β1 complexed with sGARP (Homo sapiens (Human)) (UniProt Q14392); assay: ELISA with increasing concentrations of MAB246
proTGF-β1 complexed with sGARP (Homo sapiens (Human)), sequence (Q14392 18-627 limits assumed, chain 1 of 2): as the sequence (Q14392 18-627 limits assumed, chain 1 of 2) above

[9] = target: human GARP-TGF-β1 LAP (membrane-bound GARP with TGF-β1 LAP, on 300.19 cells) (human) (UniProt Q14392); assay: flow cytometry on 300.19 cells stably expressing the complex; MFI minus control 300.19 cells; one-site binding fit
human GARP-TGF-β1 LAP (membrane-bound GARP with TGF-β1 LAP, on 300.19 cells) (human), sequence (Q14392 20-662 limits assumed, chain 1 of 2): as the sequence (Q14392 20-662 limits assumed, chain 1 of 2) above

[10] = target: human GARP-proTGF-β1 (membrane-bound GARP with proTGF-β1, on transfected cells) (human) (UniProt Q14392); assay: as above

biotinylated His-tagged TGF-β1 LAP C4S (Homo sapiens (Human)), sequence (P01137 other isoform, or with tags, fused parts or gaps limits assumed): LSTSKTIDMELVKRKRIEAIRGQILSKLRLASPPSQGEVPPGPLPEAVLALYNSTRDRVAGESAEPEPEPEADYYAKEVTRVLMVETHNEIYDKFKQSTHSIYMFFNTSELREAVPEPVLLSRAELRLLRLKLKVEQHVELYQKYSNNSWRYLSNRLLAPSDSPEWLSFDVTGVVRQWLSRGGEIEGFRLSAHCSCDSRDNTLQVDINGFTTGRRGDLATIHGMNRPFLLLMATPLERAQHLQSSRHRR

| RFU [1] [RFU] | RFU [2] [RFU] | RFU [3] [RFU] | reporter activity (TMLC luciferase, RLU), 20 or 50 µg/ml MAB246 [4] [fold] | RLUs (TMLC luciferase), with αvβ6-expressing cells and 20 or 50 µg/ml MAB246 [5] [fold] | reporter activity (TMLC luciferase, RLU), 20 µg/ml MAB246 [5] [fold] | reporter activity (TMLC luciferase, RLU), 50 µg/ml MAB246 [5] [fold] | Kd [6] [nM] | Kd [7] [nM] | Kd [8] [nM] | Kd [9] [µg/mL] | Kd [10] [µg/mL] | RLUs (TMLC luciferase), no antibody [5] [fold] | Substance |
| --- | --- | --- | --- | --- | --- | --- | --- | --- | --- | --- | --- | --- | --- |
| 14600 | 4540 | 3310 | – | – | – | – | – | – | – | – | – | – | 9016.2 (mouse monoclonal anti-TGF-β LAP antibody, Abcam, Cambridge, UK) |
| 26800 | 24900 | 18800 | < 2 | 3.5 | 2 | > 2.5 | 0.24 | 0.14 | 0.91 | 0.08 | 35.1 | – | MAB246 (R&D Systems, Minneapolis, Minn.), mouse IgG1 anti-TGF-β1 LAP antibody, clone 27235 |
| 57500 | 42100 | 32000 | – | – | – | – | – | – | – | 0.11 | 0.19 | – | MAB2463 (R&D Systems, Minneapolis, Minn.), mouse IgG1 anti-TGF-β1 LAP antibody, clone 27232 |
| – | – | – | – | – | – | – | – | – | – | – | – | 2.5 | αvβ6 integrin (on cells, e.g. SW480-β6 cells) (from UniProt P06756 31-1048; P18564 22-788) (receptor) |
